From publication PMC5961942

Biological target: trimeric PD-L1 trap (mouse) (UniProt Q02242)
Test: SDS-PAGE without reducing agent

trimeric PD-L1 trap (from UniProt Q02242 21-150; P51942 458-500) (designed binder)
stoichiometry N: 3
